In US20230265187A1 (published 2023):
Where a chain is given by its changes, count along the chain named.

T1: human TIGIT on Jurkat cells (TIGIT/NFAT reporter Jurkat cells, BPS Bioscience #60538); Promega TIGIT Effector … (human, UniProt Q495A1 22-244)
T1 sequence (looked up): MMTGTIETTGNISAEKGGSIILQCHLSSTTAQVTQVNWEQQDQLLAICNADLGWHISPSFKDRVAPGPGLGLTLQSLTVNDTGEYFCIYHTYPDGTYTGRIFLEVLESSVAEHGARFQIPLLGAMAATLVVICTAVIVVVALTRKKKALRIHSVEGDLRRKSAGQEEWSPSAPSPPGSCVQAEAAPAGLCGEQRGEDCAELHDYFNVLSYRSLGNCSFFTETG

T2: his-tagged human TIGIT (Acro Biosystems #TIT-H52H3) (human, UniProt Q495A1 22-141)
T2 construct: Bought protein; also called His-tagged-TIGIT (human); not shown: his tag
T2 sequence (looked up): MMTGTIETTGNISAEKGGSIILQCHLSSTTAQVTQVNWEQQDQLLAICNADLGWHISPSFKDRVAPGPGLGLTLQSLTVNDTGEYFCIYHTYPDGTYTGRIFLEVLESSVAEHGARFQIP

T3: his-tagged murine TIGIT (Acro Biosystems #TIT-M52E6) (murine, UniProt P86176 29-148, limits assumed)
T3 construct: Bought protein; also called mouse his-tagged TIGIT; not shown: his tag
T3 sequence (looked up): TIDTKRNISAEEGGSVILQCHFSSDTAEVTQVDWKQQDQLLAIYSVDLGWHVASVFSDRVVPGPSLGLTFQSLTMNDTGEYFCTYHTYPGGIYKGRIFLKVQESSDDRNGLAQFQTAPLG

B1: 43586p1.1.G9 (scFv, V domains shown)
VH: EVQLLESGGGLVQPGGSLRLSCAASGFTFTTYAMSWVRQAPGKGLEWVAGISYIGSDKYYADSVKGRLTISRDNSKNTLYLQMDSLRAEDTAVYYCAKHLTGGTTDYYYYGMDVWGQGTTVTVS
VL: QSVLTQPPSASGTPGQRVTISCSGSTSNIGTSRYVHWYQHLPGTAPKLLIYLDSQRPSGVPDRFSASKSGTSASLAISGLQSEDEADYYCSAWDDSLSAWVFGGGTKLTVL
B2: 43586p2.B02 (scFv, V domains shown)
VH: EVQLLESGGGLVQPGGSLRLSCAASGFTFTSYAMSWVSQAPGKGLEWVAGISYDGSSKYYADSVKGRLTISRDNSKNTLYLQMNSLRAEDTAIYYCAKHLTGGTTDYYYYAMDVWGQGTTVTVSS
VL: B1 VL with T26R, S32N, H40Q, L52G, D53N, S54H, A66G, S91A
B3: 43586p2.C09 (scFv, V domains shown)
VH: B2 VH with A23T, S57I
VL: B1 VL with S32N, H40Q, L41F, L52G, D53T, S54D, Q55R, P61S, A66G, S91A
B4: 43586p1.1.A7 (scFv, V domains shown)
VH: B2 VH with S38R, S57I, K58Q, Y80N, E89G, I93V, A111G
VL: QSVMTQPPSASGTPGQRVTISCSGSSSNIGTNRYVHWYKQVPGTAPKLLIYGNHQRPSGVPDRFSGSKSGTSASLAISGLQSEDEADYYCAAWDGSLSGWVFGGGTKLTVL
B5: 43586p1.2.C5 (scFv, V domains shown)
VH: EVQLLESGGGLVQPGGSLRLSCAASGFTVSDHYMSWVRQAPGKGLEWVSTTSSTSWKNYTYYADSVKGRFSISRDNSENTLYLQMNGLRAEDTAVYYCAKGSYGMDVWGQGTTVTVSS
VL: QSVLTQPPSASGTPGQRVTISCSGSNFNIGTKYLYWYQQLPGTAPKLLIYLDSQRPSGVPDRFSTSKPGTSASLAISGLQSEDEADYYCALWDDHLHGWVFGGGTKLTVL
B6: 43645p1.D7 (scFv, V domains shown)
VH: EVQLLESGGGLVQPGGSLRLSCAASGFTFSRNSMSWVRQAPGKGLEWVSTINSGSSYTYYADSVKGRFTISRDNSKNTLYLQMNSLRAEDTAVYYCAKDNCNGYHCYGMDVWGLGTTVTVSS
VL: QSVLTQPPSASGTPGQRVTISCSGSTSNVGDHYVHWYQQLPGTAPKLLIYKDDQRPSGVPDRFSGSKSGTSASLAISGLQSEDEADYYCSTWDNTLNGWVFGGGTKLTVL
B7: 43586p1.2.B8 (scFv, V domains shown)
VH: EVQLLESGGGLVQPGGSLRLSCAASGFTFTSYLMSWVRQAPGKGLEWVSTITWDGDRTYYADSVKGRFTISRDNSKNTLYLQMNSLRVGDTAVYYCAKHWTVFQYGMDVWGQGTTVTVSS
VL: QSVLTQPASASGTPGQRVTITCSGTISNIETKYVSWYQQLPGTAPKLLIYGNHQRPSGVPDRFSGSKSGTSASLAISGLQSEDEADYYCASWENDLKSWVFGGGTKLTVL
B8: 43586p1.2.C12 (scFv, V domains shown)
VH: ESGGGLVQPGGSLRLSCAASGFTFSDYLMTWVRQAPGKGLEWVSTITWDGDRTYYADSVKGRFTISRDNSKNTLYLQMNSLRAEDTAVYYCAKHWTVFQYGMDVWGQGTTVTVSS
VL: B7 VL with A8P, T21S, T31I, A90S
B9: 43586p1.2.C9 (scFv, V domains shown)
VH: EVQLLESGGGLVQPGGSLRLSCAASGFTFDDYVMSWVRQAPGKGLEWVSLINWNGDKTYYADSVKGRFTISRDNSKNTLYLQMNSLRAEDTAIYYCAKHWIVFQYGMDVWGQGTTVTVSS
VL: B7 VL with A8P, T21S, T25S, G51N, N52S, H53D, A90V, E93D, N94A, D95S
B10: 43586p2.D06 (scFv, V domains shown)
VH: EVQLLESGGGLVQPGGSLRLSCAASGFTFSSYWMNWVRQAPGKGLEWVSGIYSGGTTYYADSVKGRFTISRDNSKNTLYLQMNSLRAEDTAVYYCTRENWKENNAMDVWGQGTTVTVSS
VL: QSVLTQPPSASGTPGQRVTISCSGVTSNIASYHVYWYQQLPGTAPKLLIYLNSQRPSGVPDRFSASKSGTSASLAISGLQSEDEADYYCATWDGSLNGWVFGGGTKLTVL
B11: 43586p2.G02 (scFv, V domains shown)
VH: B10 VH
VL: B10 VL with L96Q

biological target: T1, human TIGIT on Jurkat cells (TIGIT/NFAT …); test: cell-based or functional assay

Row | Binder | max. signal (% of 22G2)
1 | B1 | 113 % of 22G2
2 | B2 | 106 % of 22G2
3 | B3 | 115 % of 22G2
4 | B4 | 89 % of 22G2
5 | B5 | 91 % of 22G2
6 | B6 | 57 % of 22G2
7 | B7 | 130 % of 22G2
8 | B8 | 118 % of 22G2
9 | B9 | 126 % of 22G2

biological target: T2, his-tagged human TIGIT (Acro Biosystems …); test: ELISA, coated His-TIGIT, 1 ug/ml

Row | Binder | Elisa OD450 [OD450]
10 | B1 | 2.23
11 | B2 | 1.94
12 | B3 | 2.07
13 | B4 | 2.01
14 | B5 | 2.03
15 | B6 | 2.06
16 | B7 | 2.1
17 | B8 | 2.21
18 | B9 | 2.17
19 | B10 | 1.77
20 | B11 | 1.88

biological target: T3, his-tagged murine TIGIT (Acro …); test: ELISA, coated His-TIGIT, 1 ug/ml

Row | Binder | Elisa OD450 [OD450]
21 | B1 | 0.046
22 | B2 | 0.046
23 | B3 | 0.046
24 | B4 | 0.045
25 | B5 | 2.03
26 | B6 | 0.32
27 | B7 | 1.66
28 | B8 | 2.03
29 | B9 | 0.046
30 | B10 | 1.36
31 | B11 | 1.7

biological target: T4, His-tagged cynomolgus monkey TIGIT (Acro Biosystems #TIT-05223) (cynomolgus monkey, UniProt A0A7N9I9V4 89-209); test: ELISA, coated His-TIGIT, 1 ug/ml
T4 construct: Bought protein; also called cyno TIGIT; cynomolgus TIGIT; not shown: His tag
T4 sequence (A0A7N9I9V4 entry or part of it): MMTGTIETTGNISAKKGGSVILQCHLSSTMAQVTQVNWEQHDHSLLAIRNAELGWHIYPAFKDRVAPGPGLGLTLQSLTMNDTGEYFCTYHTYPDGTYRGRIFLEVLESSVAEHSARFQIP

Row | Binder | Elisa OD450 [OD450]
32 | B1 | 1.6
33 | B2 | 1.59
34 | B3 | 1.79
35 | B4 | 1.34
36 | B5 | 0.685
37 | B6 | 1.88
38 | B7 | 1.46
39 | B8 | 1.68
40 | B9 | 1.61
41 | B10 | 1.66
42 | B11 | 1.5

biological target: T1, human TIGIT on Jurkat cells (TIGIT/NFAT …); test: flow cytometry, TIGIT/NFAT Jurkat cells, 10 ug/ml

Row | Binder | MFI [MFI]
43 | B1 | 9000
44 | B2 | 9090
45 | B3 | 8830
46 | B4 | 9000
47 | B5 | 10700
48 | B6 | 9660
49 | B7 | 9470
50 | B8 | 11900
51 | B9 | 8330
52 | B10 | 15400
53 | B11 | 7590

biological target: T2, his-tagged human TIGIT (Acro Biosystems …); test: SPR (Carterra LSA), scFv-Fc captured, His-TIGIT analyte
Description: (§1) Binding affinities of anti-TIGIT antibodies to human, cyno, and murine TIGIT were measured by Surface Plasmon Resonance (SPR) on a Carterra LSA instrument. Goat anti-human Fc antibody was amine coupled to a HC30M chip. ScFv-Fc supernatants were diluted 30-fold with HBSTE and were captured by the anti-human Fc coupled HC30M chip. A 1:2 dilution series of his-tagged human TIGIT, starting at 400 nM, was injected onto the chip for binding. A dilution series was also carried out for cyno TIGIT and murine TIGIT. Data were analyzed using the Carterra™ Kinetics software.

Row | Binder | Kd [nM]
54 | B1 | 1.08
55 | B2 | 2.19
56 | B3 | 0.354
57 | B4 | 0.721
58 | B5 | 1.04
59 | B6 | 6.76
60 | B7 | 0.125
61 | B8 | 0.192
62 | B9 | 0.202
63 | B10 | 0.344
64 | B11 | 0.639

biological target: T3, his-tagged murine TIGIT (Acro …); test: as above
Description: as §1

Row | Binder | Kd [nM]
65 | B5 | 3.2
66 | B7 | 501
67 | B8 | 68.2
68 | B9 | 3.66
69 | B10 | 3.09
70 | B11 | 1.57

biological target: T4, His-tagged cynomolgus monkey TIGIT …; test: as above
Description: as §1

Row | Binder | Kd [nM]
71 | B1 | 18.8
72 | B2 | 26.8
73 | B3 | 2.62
74 | B4 | 20
75 | B5 | 411
76 | B6 | 6.27
77 | B7 | 25.3
78 | B8 | 9.18
79 | B9 | 8.69
80 | B10 | 1.06
81 | B11 | 2.37
